From patent US20250361282A1 come the findings set out here.

One assay concerns the target rat NPR-A (rat) (UniProt P18910). Briefly: cell-based or functional assay.
The target in another assay is rat NPR-B (rat) (UniProt P16067). Description: cell-based or functional assay.
Sequence of rat NPR-B (rat) (P16067 17-1047): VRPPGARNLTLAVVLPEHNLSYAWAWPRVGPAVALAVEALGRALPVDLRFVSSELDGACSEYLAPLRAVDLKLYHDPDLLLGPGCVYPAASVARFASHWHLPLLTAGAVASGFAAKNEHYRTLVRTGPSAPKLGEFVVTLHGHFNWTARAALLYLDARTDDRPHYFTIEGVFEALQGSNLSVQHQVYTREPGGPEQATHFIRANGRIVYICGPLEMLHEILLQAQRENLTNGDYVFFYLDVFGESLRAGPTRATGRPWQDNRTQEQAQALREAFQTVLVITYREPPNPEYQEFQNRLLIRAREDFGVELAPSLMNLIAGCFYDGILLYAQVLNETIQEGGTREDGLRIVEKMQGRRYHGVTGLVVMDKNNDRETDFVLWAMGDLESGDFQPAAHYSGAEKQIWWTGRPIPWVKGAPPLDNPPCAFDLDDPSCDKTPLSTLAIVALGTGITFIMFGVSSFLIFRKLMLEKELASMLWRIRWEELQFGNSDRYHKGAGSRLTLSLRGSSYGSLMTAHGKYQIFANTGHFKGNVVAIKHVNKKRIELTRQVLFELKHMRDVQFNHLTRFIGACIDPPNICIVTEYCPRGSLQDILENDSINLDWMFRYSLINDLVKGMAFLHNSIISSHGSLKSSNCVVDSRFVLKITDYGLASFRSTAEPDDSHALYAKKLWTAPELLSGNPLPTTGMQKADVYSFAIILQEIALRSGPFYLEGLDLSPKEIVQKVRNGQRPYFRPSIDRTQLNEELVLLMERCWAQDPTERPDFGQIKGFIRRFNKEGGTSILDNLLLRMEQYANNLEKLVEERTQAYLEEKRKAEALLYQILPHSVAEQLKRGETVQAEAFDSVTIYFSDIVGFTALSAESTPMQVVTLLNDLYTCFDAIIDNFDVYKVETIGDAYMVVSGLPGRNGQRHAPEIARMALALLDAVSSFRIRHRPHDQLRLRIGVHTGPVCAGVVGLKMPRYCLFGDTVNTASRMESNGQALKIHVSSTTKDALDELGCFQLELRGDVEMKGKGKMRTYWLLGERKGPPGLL

Sequence of rat NPR-A (rat) (P18910 29-1057): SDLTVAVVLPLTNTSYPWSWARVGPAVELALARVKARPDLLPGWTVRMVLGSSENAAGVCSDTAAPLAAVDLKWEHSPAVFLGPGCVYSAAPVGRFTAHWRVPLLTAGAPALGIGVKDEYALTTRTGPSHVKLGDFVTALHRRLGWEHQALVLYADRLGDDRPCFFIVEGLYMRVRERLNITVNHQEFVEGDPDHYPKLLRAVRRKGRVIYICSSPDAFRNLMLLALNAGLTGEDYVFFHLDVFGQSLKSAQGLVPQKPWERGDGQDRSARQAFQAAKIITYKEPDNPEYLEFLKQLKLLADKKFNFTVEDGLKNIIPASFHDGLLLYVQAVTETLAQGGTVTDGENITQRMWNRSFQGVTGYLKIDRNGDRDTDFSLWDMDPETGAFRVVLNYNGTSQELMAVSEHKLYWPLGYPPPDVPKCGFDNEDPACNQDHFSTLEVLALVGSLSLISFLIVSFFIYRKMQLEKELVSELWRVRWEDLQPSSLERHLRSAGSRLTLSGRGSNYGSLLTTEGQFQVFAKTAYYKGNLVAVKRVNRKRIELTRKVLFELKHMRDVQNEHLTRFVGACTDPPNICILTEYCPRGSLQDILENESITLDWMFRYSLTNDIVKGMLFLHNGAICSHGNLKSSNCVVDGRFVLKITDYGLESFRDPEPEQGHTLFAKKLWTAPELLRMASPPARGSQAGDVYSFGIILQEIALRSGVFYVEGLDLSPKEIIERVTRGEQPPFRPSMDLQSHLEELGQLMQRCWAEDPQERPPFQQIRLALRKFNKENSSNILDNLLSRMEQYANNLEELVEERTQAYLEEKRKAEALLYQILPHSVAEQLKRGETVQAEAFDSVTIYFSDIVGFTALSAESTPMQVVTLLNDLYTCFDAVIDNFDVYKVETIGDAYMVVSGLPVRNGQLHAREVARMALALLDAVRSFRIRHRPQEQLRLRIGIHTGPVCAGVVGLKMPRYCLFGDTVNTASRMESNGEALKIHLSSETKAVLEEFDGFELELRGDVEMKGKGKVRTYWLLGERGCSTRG

With “ANP (Bachem, H-2100) (from UniProt P01161 123-150) (peptide)”, the EC50, fluorescence signal of rat NPR-A / CNGA2 (cGMP biosensor) / GCaMP6 CHO reporter cells in the assay with rat NPR-A (rat) came to 0.22 nM.

“BNP (Bachem, H-5968) (from UniProt P13205 90-121) (peptide)” gave an EC50, fluorescence signal of rat NPR-A / CNGA2 (cGMP biosensor) / GCaMP6 CHO reporter cells with rat NPR-A (rat) of 2.9 nM.

In the assay with rat NPR-B (rat), “CNP (Bachem, H-1296) (from UniProt P23582 105-126) (peptide)” had an EC50, luminescence signal of rat NPR-B reporter cells of 0.024 nM.
